Assay results as given in publication PMC6747400, “Mismatch Recognition by Saccharomyces cerevisiae Msh2-Msh6: Role of Structure and Dynamics”.
Where a chain is given by its changes, count along the chain named.

Assays:
Msh2;Msh6 [1] = biological target: T1, Msh2;Msh6 (Saccharomyces cerevisiae;Saccharomyces …, UniProt P25847;Q03834 1-964;1-1242, |); test: fluorescence anisotropy; Fluorescence/FRET: 10 mM sodium phosphate pH 7.5, 100 mM NaCl, 5 mM MgCl2, 10 C (10 nM DNA for anisotropy); EMSA: 20 mM Tris-Cl pH 7.5, 100 mM NaCl, 5 mM MgCl2, 2% ficoll, 4 C, 10 nM DNA; details: protein: recombinant;recombinant, tags: ;, copies: 1;1, blunt
T1 sequence (P25847 whole entry, chain 1 of 2): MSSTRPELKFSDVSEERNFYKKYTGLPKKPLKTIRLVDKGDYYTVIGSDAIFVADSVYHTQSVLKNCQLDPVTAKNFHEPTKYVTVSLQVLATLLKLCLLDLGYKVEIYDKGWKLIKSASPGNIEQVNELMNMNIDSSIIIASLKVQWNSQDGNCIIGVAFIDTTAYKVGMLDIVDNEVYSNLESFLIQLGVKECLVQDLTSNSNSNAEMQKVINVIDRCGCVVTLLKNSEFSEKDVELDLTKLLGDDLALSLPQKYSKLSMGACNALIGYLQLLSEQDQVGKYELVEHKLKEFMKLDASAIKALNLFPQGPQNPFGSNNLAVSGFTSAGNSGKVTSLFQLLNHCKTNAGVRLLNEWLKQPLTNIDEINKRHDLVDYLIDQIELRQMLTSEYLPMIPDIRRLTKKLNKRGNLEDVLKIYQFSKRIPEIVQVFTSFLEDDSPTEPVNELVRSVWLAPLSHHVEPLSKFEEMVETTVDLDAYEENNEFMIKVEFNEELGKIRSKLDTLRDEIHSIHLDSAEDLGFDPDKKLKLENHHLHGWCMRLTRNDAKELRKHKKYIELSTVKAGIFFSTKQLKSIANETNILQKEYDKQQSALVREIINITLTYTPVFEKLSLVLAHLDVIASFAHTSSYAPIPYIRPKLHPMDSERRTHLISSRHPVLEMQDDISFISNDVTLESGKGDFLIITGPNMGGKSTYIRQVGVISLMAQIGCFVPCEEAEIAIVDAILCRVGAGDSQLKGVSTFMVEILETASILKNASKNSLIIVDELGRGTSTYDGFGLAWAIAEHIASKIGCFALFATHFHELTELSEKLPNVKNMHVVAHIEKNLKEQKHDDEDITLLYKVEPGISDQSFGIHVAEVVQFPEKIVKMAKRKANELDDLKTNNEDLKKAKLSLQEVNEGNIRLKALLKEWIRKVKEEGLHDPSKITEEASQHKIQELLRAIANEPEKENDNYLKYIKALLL
T1 sequence (Q03834 whole entry, chain 2 of 2): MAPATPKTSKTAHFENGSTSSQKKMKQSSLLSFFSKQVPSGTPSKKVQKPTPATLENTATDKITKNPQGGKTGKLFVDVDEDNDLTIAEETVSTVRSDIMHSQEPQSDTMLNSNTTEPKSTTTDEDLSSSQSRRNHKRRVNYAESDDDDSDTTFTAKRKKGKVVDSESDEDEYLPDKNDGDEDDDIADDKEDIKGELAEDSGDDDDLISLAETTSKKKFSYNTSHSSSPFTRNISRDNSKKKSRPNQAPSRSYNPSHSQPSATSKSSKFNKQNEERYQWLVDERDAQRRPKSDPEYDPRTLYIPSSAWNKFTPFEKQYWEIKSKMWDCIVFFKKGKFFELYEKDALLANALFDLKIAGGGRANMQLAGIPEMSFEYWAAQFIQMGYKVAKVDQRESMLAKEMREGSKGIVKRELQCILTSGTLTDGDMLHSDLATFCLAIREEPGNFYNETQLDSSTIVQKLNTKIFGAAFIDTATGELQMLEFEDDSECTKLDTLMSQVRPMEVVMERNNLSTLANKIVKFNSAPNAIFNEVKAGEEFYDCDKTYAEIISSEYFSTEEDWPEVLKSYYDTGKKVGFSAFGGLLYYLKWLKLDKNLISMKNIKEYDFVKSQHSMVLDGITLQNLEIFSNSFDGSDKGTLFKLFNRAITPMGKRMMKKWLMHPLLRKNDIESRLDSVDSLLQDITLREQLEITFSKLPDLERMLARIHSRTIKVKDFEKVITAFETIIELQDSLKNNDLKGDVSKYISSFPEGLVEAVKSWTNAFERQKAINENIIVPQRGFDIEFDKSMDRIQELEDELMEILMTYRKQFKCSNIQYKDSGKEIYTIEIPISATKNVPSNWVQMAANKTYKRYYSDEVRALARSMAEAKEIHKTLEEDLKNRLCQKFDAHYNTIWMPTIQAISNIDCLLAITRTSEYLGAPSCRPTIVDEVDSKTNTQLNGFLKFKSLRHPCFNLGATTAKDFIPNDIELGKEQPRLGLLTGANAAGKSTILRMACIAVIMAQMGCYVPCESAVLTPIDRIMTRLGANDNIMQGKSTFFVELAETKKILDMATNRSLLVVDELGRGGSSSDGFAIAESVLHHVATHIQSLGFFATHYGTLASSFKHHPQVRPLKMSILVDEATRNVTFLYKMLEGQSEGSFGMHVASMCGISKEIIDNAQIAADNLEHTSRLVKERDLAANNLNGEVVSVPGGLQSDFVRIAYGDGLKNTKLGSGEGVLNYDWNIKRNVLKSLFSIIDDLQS

Msh2;Msh6 [2] = biological target: T1, Msh2;Msh6; test: fluorescence intensity; Fluorescence/FRET: 10 mM sodium phosphate pH 7.5, 100 mM NaCl, 5 mM MgCl2, 10 C (10 nM DNA for anisotropy); EMSA: 20 mM Tris-Cl pH 7.5, 100 mM NaCl, 5 mM MgCl2, 2% ficoll, 4 C, 10 nM DNA; details: protein: recombinant;recombinant, tags: ;, copies: 1;1, label: 6-MI internal, blunt
Msh2;Msh6 [3] = biological target: T1, Msh2;Msh6; test: fluorescence anisotropy; text gives error 6.9; Fluorescence/FRET: 10 mM sodium phosphate pH 7.5, 100 mM NaCl, 5 mM MgCl2, 10 C (10 nM DNA for anisotropy); EMSA: 20 mM Tris-Cl pH 7.5, 100 mM NaCl, 5 mM MgCl2, 2% ficoll, 4 C, 10 nM DNA; details: protein: recombinant;recombinant; tags: ;; copies: 1;1; label: 6-MI internal; blunt, 6-MI:A mismatch
Msh2;Msh6 [4] = biological target: T1, Msh2;Msh6; test: fluorescence anisotropy; Figure S2 legend gives 92.1 ± 13.9; Fluorescence/FRET: 10 mM sodium phosphate pH 7.5, 100 mM NaCl, 5 mM MgCl2, 10 C (10 nM DNA for anisotropy); EMSA: 20 mM Tris-Cl pH 7.5, 100 mM NaCl, 5 mM MgCl2, 2% ficoll, 4 C, 10 nM DNA; details: protein: recombinant;recombinant; tags: ;; copies: 1;1; label: 5' Alexa Fluor 647 on strand 1; blunt homoduplex
Msh2;Msh6 [5] = biological target: T1, Msh2;Msh6; test: fluorescence anisotropy; Table 1 prints this value in the intensity column of +T_6-MI; Fluorescence/FRET: 10 mM sodium phosphate pH 7.5, 100 mM NaCl, 5 mM MgCl2, 10 C (10 nM DNA for anisotropy); EMSA: 20 mM Tris-Cl pH 7.5, 100 mM NaCl, 5 mM MgCl2, 2% ficoll, 4 C, 10 nM DNA; details: protein: recombinant;recombinant; tags: ;; copies: 1;1; label: 5' Alexa Fluor 594 on strand 1; blunt, unpaired T14 in strand 1

B1: 6-MI:C (dsDNA)
DNA 1: TATGCAGTCACTATGAATCAACTACTTAGATGGT
DNA 2: ACCATCTAAGTAGTTGATTCATAGTGACTGCATA
modifications: 6-MI replaces G15 of strand 1 (F, written G)
- Kd (Msh2;Msh6 [1]; label: 6-MI internal, 34 bp homoduplex): 122 ± 12.1 nM

B2: A:A_6-MI (dsDNA)
DNA 1: B1 DNA 1 with T26A
DNA 2: B1 DNA 2
modifications: 6-MI replaces G10 of strand 2 (F, written G)
- Kd (Msh2;Msh6 [2]; A26:A mismatch): 10.4 ± 2.4 nM
- Kd (Msh2;Msh6 [1]; label: 6-MI internal, A26:A mismatch): 11.3 ± 3.1 nM

B3: 6-MI_A:C (dsDNA)
DNA 1: B1 DNA 1
DNA 2: B1 DNA 2 with T19C
modifications: 6-MI replaces G15 of strand 1 (F, written G)
- Kd (Msh2;Msh6 [2]; A16:C mismatch): 17.1 ± 4.3 nM
- Kd (Msh2;Msh6 [1]; label: 6-MI internal, A16:C mismatch): 13.3 ± 3.6 nM

B4: 6-MI:G (dsDNA)
DNA 1: B1 DNA 1
DNA 2: B1 DNA 2 with C20G
modifications: 6-MI replaces G15 of strand 1 (F, written G)
- Kd (Msh2;Msh6 [1]; label: 6-MI internal, 6-MI:G mismatch): 10.4 ± 5.8 nM

B5: 6-MI:T (dsDNA)
DNA 1: B1 DNA 1
DNA 2: B1 DNA 2 with C20T
modifications: 6-MI replaces G15 of strand 1 (F, written G)
- Kd (Msh2;Msh6 [1]; label: 6-MI internal, 6-MI:T mismatch): 13.7 ± 3.4 nM

B6: 6-MI_A:A (dsDNA)
DNA 1: B1 DNA 1
DNA 2: B1 DNA 2 with T19A
modifications: 6-MI replaces G15 of strand 1 (F, written G)
- Kd (Msh2;Msh6 [2]; A16:A mismatch): 19.1 ± 3.5 nM
- Kd (Msh2;Msh6 [1]; label: 6-MI internal, A16:A mismatch): 7.9 ± 2 nM

B7: T:G_6-MI (dsDNA)
DNA 1: B1 DNA 1
DNA 2: B1 DNA 2 with A21G
modifications: 6-MI replaces G15 of strand 1 (F, written G)
- Kd (Msh2;Msh6 [1]; label: 6-MI internal, T14:G mismatch): 25.9 ± 1.2 nM

B8: G:T_AF594 (dsDNA)
DNA 1: B1 DNA 1
DNA 2: B1 DNA 2 with C20T
modifications: 5' amino C6 on strand 1
- Kd (Msh2;Msh6 [1]; label: 5' Alexa Fluor 594 on strand 1, G15:T mismatch): 13.3 ± 3.9 nM

B9: +T_6-MI (dsDNA)
DNA 1: B1 DNA 1
DNA 2: ACCATCTAAGTAGTTGATTCTAGTGACTGCATA
modifications: 6-MI replaces G15 of strand 1 (F, written G)
- Kd (Msh2;Msh6 [1]; label: 6-MI internal, unpaired T14 in strand 1 (34/33 nt)): 16 ± 2.9 nM

B10: 6-MI:A (dsDNA)
DNA 1: B1 DNA 1
DNA 2: B1 DNA 2 with C20A
modifications: 6-MI replaces G15 of strand 1 (F, written G)
- Kd (Msh2;Msh6 [3]): 25.8 ± 12.3 nM

B11: G:G end-labeled (dsDNA)
DNA 1: B1 DNA 1
DNA 2: B1 DNA 2 with C20G
modifications: 5' amino C6
- Kd (Msh2;Msh6 [1]; label: Alexa Fluor 594 or 647, G15:G mismatch): 15.6 ± 3.4 nM

B12: G:C_AF647 (dsDNA)
DNA 1: B1 DNA 1
DNA 2: B1 DNA 2
modifications: 5' amino C6 on strand 1
- Kd (Msh2;Msh6 [4]): 106 ± 13.9 nM

B13: T:T_6-MI (dsDNA)
DNA 1: B1 DNA 1
DNA 2: B1 DNA 2 with A21T
modifications: 6-MI replaces G15 of strand 1 (F, written G)
- Kd (Msh2;Msh6 [1]; label: 6-MI internal, T14:T mismatch): 77.5 ± 20 nM

B14: T:C_6-MI (dsDNA)
DNA 1: B1 DNA 1
DNA 2: B1 DNA 2 with A21C
modifications: 6-MI replaces G15 of strand 1 (F, written G)
- Kd (Msh2;Msh6 [1]; label: 6-MI internal, T14:C mismatch): 113 ± 18.7 nM

B15: 6-MI_A:G (dsDNA)
DNA 1: B1 DNA 1
DNA 2: B1 DNA 2 with T19G
modifications: 6-MI replaces G15 of strand 1 (F, written G)
- Kd (Msh2;Msh6 [2]; A16:G mismatch): 11.8 ± 2.8 nM
- Kd (Msh2;Msh6 [1]; label: 6-MI internal, A16:G mismatch): 9 ± 2.8 nM

B16: +T_AF594 (dsDNA)
DNA 1: B1 DNA 1
DNA 2: B9 DNA 2
modifications: 5' amino C6 on strand 1
- Kd (Msh2;Msh6 [5]): 18.1 ± 2.6 nM
